# Experimental data as given in the DeepSol protein solubility set.
# Experiment: soluble on expression in E. coli; label from the status in PepcDB or PDB records
row,Sequence,soluble on expression in E. coli
1,MQKETWRFIDSGNASPAFNMALDEALLYWHSEKKIPPVIRFYGWNPATLSVGYFQNIKKEINFEAVHKYNLGFVRRPTGGRGVLHDQELTYSVIVSEEHPEMPATVTEAYRVISEGILQGFRNLGLDAYFAIPRTEKEKESLKNPRSSVCFDAPSWYELVVEGRKVAGSAQTRQKGVILQHGSILLDLDEDKLFDLFLYPSERVRERMQRNFKNKAVAINELIEKRVTMDEARKAFKEGFETGLNIHLEPYELSQEELDFVHHLAETKYASDEWNYKRMAGDPLEHHHHHH,not soluble
2,MQKQRMSGQNQKTDKRIAWPIIIMNFTGVYDYEAFARNNKFIWLDCRHLYGTDGYCDREGALALKGMIADYPAEGVHFIDSGNYHYLTKFWTDKLETPFSLIVFDHHPDMQPPLFDNILSCGSWVKDILDHNNNCKKVIIVGASDKLIQAVPKGYERQVRFYSETTLMHEEGWQNFSSGHINGPVYISIDKDVLKPASAATNWDQGSLSLWELEKLLAVILQKEQVVGIDICGECSTTLNLFEEKRETVMDSQANKELLRFIRSSSGLQ,not soluble
3,MQKRHTNRERYFEEQAQTTRNYYIPYIKEYTGNLPNKVLEVGCGEGGNLLPFAELGCDVIGIDIAASRIEQAQNFFITKRQKGTFIASDIFLLKDLQKHFPLILIHDVIEHIDNKEQFLRNLKKYLSPNGMIFIAFPAWQMPFGGHQQIARSKIISHMPFIHLLPRMLYKRILELFSEQESTVKELLTIKYTRCTIEMFRRVVKQTDYQIVNEQLYFINPHYKIKFGLTPHKLNKTIACIPFIRNVFSTSCFYLIRPT,not soluble
4,MQLSPKEFEYQFRCLYRPLNMYALRYTENLDDAEDIVQQAFSDVWEKLVGGTSIQNLKAYMYQTVRNRSLTLITNRQTHCETTELTDLEDLTEEERIIRSERDARLWTAIDHLPTERKKIFLLSKRDGLTYQEIATELGISIKTVEHQISKALKTLRETAIKIYTFFFG,not soluble
5,MQMMEQFYPKVSIVIPVYNGSDYMREAIDSALGQTYGNIEVIVVNDGSSDGGLTHEIALSYGGNIRYFAKENGGVASALNFAIRMMDGEYFSWLSHDDIYYPNKIETQIGYLAEHDRNAILYSDFELIDCLSKVIKPVNAGEIPPEQFLYNLITIGHLNGCTLLVPKRCFEETGFFDESLRSTQDYALWFTFAQKYRFEQIRKVLVKYRTHSNQGSYVIPTHSQEVNDLHIWFLEEASERGLLPIPDEGASRFFLEVAGIYKKRGIYRAADYSCSMALRHMRDEGGLALLRELPRVAYLKYYFRKKQFKSYLRELRRSTVRRSLLEHHHHHH,not soluble
6,MQNEQLLQEVGLNAYEAAAYLSLLKLGVSEASDIYRDSEVPYGKIYSVLESLAGKGFVEVQASRPKKFRAVDPELALDTFFERRKAEVEREMAFLKSSVEEAKSVLKAVPTQKRKDEFFWTTAITESEIKKFAVSIYSEVKKSVCVLPPVFGISIVFYLLPEITKAIDRGVRIKLMISPRFMALASVLSHQEGEILEKLKKGLDIRLVQNSNSCFGIVDDSIVVLFQPHPTDRDRVLSVVKVRDSGLAKNLKEEFDLLWNAGEKLDLQEELEDKQNPGKN,not soluble
7,MQNSLLTQHIAQIIAAEISSQPTQARAAIALLDEGASVPFIARYRKEATGGLDDTQLRILETRLTYLRELEERRSTILTSITEQGKLNDLLHAEILAADTKSRLEDLYLPYKPKRRTRAQIAREAGLEPLADSLLADPTLIPETVAANFVDPEKGITDIKTALEGARAILIERWGEDAALIGELRQWLANNGVIHARLIDNKEDTGAKYRDYFNHTELLSKIPSHRLLALFRARSEEILHLDLDPGNDADAGHQYCESMVMQAACVADQGRPADTWLMTACRLTWRAKLHMHLMLDLFNQAREKAEAEAITVFSNNLKDLLLAAPAGPRIVLGIDPGIRTGCKIAIVDTTGKLIATETIYPHEPRREWDKSLHTLKTLCTQHHITLIAIGNGTASRETDKLVSDLIKAHPALELQKIVVSESGASVYSASESAAKEFPDLDVSLRGAVSIARRLQDPLAELVKIDPKAIGVGQYQHDVDQFHLAKALDARVEDCVNAVGVYVNTASAALLSRVSGLSASVAENITRYRDEHGSFKQRQDLLKVPRLGAKTFEQCAGFLRIADGNQPLDASAVHPEAYPVVERIVQTTGKPIKALIGDSHTLRMLKPEQFTDTNFGIPTIRDIIKELEKPGRDPRPEFKAVRFTEGVENIKDLKPGMILEGVVSNVAAFGAFVDIGVHQDGLIHISALADRFVKDPRDIVKAGDIVKVKVLEIDVPRKRIALTCRLHEETPPETPVANRTGNERGRPNPVAKKVKATPTDNALAQAFARARLK,soluble
8,MQNVKHSYLACSSSSCCQFFSLFLSLCHAEHQIQTLSPSFAYTLLIFALLVSDKSEIALLSRHTHTYIFLPISSVHPSLELLPFVVFMHMRKLLNDVIRPLKKGDGRSAWNVLIVDTLAMRMLSSCCKMHNIMEEGITIVEDLNKRREPLPTLEAIYLIAPTAESIDKLIQDYCARNLYKCAHVFFTEACSDQLFSTLSKSAAARFIKTLKEINIAFTPYESQVFNLDSPDTFFLYYNAQKQGGLTSNLERIAEQIATVCATLGEYPSLRYRADFERNVELGHLVEQKLDAYKADDPSMGEGADKARSQLIIIDRGYDAITPLLHELTLQAMCYDLLGIENDVYKYETGGSDENLEKEVLLDENDDLWVEMRHKHIAVVSQEVTKNLKKFSESKGNKGTMDSKSIKDLSMLIKRMPQHKKELNKFSTHISLAEECMKQYQQGVDKLCKVEQDLSTGIDAEGERVRDAMKLMVPLLIDPAVRCEDRLRLILLYILSKNGITDENLNKLLQHANISMADKETITNAAYLGLNIVTDTGRKKTWTPTKKERPHEQVYQSSRWVPVIKDIIEDAIDERLDTKHFPFLAGRQVNQGYRAPASARYGQWHKERGQQSNYRSGPRLIIYIIGGVTFSEMRACYEVTAARKPWEVVIGSDRIITPDKFLTNLRDLNKPRDI,soluble
9,MQPLVSVLICAYNVEKYFAQSLAAVVNQTWRNLDILIVDDGSTDGTPAIARRFQEQDGRIRIISNPRNLGFIASLNIGLDELAKSGGGGEYIARTDADDIASPGWIEKIVGEMEKDRSIIAMGAWLEVLSEENNKSVLAAIARNGAIWDKPTRHEDIVAVFPFGNPIHNNTMIMRRSVIDGGLRFDPAYIHAEDYKFWYEAGKLGRLAYYPEALVKYRFHQDQTSSKYNLQQRRTAWKIKEEIRAGYWKAAGIAVGADCLNYGLLKSTAYALYEKALSGQDIGCLRLFLYEYFLSLEKYSLTDLLDFLTDRVMRKLFAAPQYRKILKKMLRPWKYRSYLEHHHHHH,not soluble
10,MQQYIGIDVGGTHVKYGVINSDGEELTHHQFDTPEDASTFTRKWQDVVARCQQDYDIAAIGVSFPGHINPHNGHAAKAGALAYLDDVNLMELFSGLTDLPLVVENDANCAALGEMWRGAGQHYENMVCITIGTGIGGGIIVGRELYRGAHFHAGEFGVMPVGNNGESMHKIASTSGLMASCRQALALPAEEMPPADVIFERMATDVHLREAVNDWARYLSRGVYSVISMFDPGVVLIGGGISEQEKLYPLLTRHLETFEMWEALQVPIQPCQLGNQAGRLGAVWLAQQKLDRG,not soluble
11,MQRARCYLLGETAVVLELEPPITLASQKRIWRLTQRLVDMPNVVEAIPGMNNITVILREPQTLALDAIERLQRWWEESEALEPDSRSVEIPVIYGGAGGPDLAAVARHSGLSEKQVVELHASVEYVVWFLGFQPGFPYLGNLPEPLHMPRRAEPRLQVPAGSVGIGGAQTGIYPLSTPGGWQLIGLTPLKLFDPMRETPVLLRPGDSVRFVPQKEGICMAGDPLEHHHHHH,not soluble
12,MQRVTITLDDDLLETLDSLSQRRGYNNRSEAIRDILRGALAQEATQEHGTQGFAVLSYVYEHEKRDLASRIVSTQHHHHDLSVATLHVHINHDDCLEIAVLKGDMGDVQHFADDVIAQRGVRHGHLQCLPKED,not soluble
13,MQRVVVAIDAKRVDGEFMVFTHSGKKNTGILLRDWVVEVEKRGAGEILLTSIDRDGTKSGYDTEMIRFVRPLTTLPIIASGGAGKMEHFLEAFLAGADKALAASVFHFREIDMRELKEYLKKHGGSGQAVVVAIDAKRVDGEFMVFTHSGKKNTGILLRDWVVEVEKRGAGEILLTSIDRDGTKSGYDTEMIRFVRPLTTLPIIASGGAGKMEHFLEAFLAGADAALAASVFHFREIDMRELKEYLKKHGVNVRLEGLLEHHHHHH,soluble
14,MQSASDGFSKMIKTLLYITPDPCPECGGNLYAWRAKNKDGSDRCPPTCMECGYKARKKAEDLETEKMFNDSLKARAINYLKYSSLYTDKNLINCRFKTYKTVDTETKLAFEIANRATTEILLNKPIHMILSGKSGVGKSHLAMSTAWEVLEKSNYDKRCLFISYAELLEQLKFAMNDEQARKEITGSLMAEIKSADLVVLDDLGAELGVKQIDDRNKSTNFNNDTLNRIVEARQNKATIFTTNLTGKEMSQAYGERILSRIMSNSQGFVMKIEGTSDKRVAGILEHHHHHH,soluble
15,MQSFADAKEFFQYSAGQWQSRRVTHHLPFRRAESGGSNIQVETLEKDDPRIIEICQMHDMDASLSVGGSYVTWAGTMQWDKDDENHEGSTVFALIPDADNPRQGKLLRERGYAEIVPVAGEYHLDHEDGLVLTTEYETMTIYERFWFANPDLRLRTSTVKRFGGFNTTTFCMEERIQTSPVTATAAAETNPLYAISGW,not soluble
16,MQSFLQLVAHDLYAKIGNDLSRTVLVFPNKRANLFFNEHLAGESDQPIWSPAAMSISDLFRKLSVQKAGDPIRLVCELYKVFREETESQETLDDFYFWGELLISDFDDVDKNLVDANKLFSNLQDLKNLMDDYEFLDKEQEEAIQQFFQNFSIERRTVLKEKFISLWDKLGTIYHRYRENLAELGIAYEGMLYRNVIEQLDTTRLKYDKYIFVGFNVLNKVETKFFQLLQDADKAMFYWDYDLFYTKQIVKHEAGEFINRNLKLFPNELPESCFDTLRKPKNIRYISASTENAQARFLPEWVQSTLSTANEEKENAVVLCNEALLLPVLHSIPQEVENVNITMGFPLAQTPVYSFINAAMELQTNGYRTATGRFTYETVSAILKHPYTRQLSINAEPLERELTKTNRFYPLPSELKMDDFLIKLFTPRSGIKELCDYLTELIKDISLLYREESEYNDIFNQLYRESLFKSYTTINRLYSLIETGELNVRTDTLRRLVSKVLTASNIPFHGEPAIGMQVMGVLETRNLDFRNIILLSLNEGQLPKSGGDSSFIPYNLRKAFGMTTIEHKNAVYAYYFYRLIQRAENITLLYNTSSNGLNRGEESRFMLQLLVEGPHKITREYLEAGQSPQGTTDISIEKTPEVFERLRCSYDCSNPQSYILSPSALNAYLDCRLKFYYRYVARLKAPDEVSAEIDSALFGTIFHLSAQLAYTDLTANRKIIQKEDLERLLRNEVKLQNYVDLAFKQELFKVPADEKPEYNGVQLINSKVIVSYLKQLLRNDLQYAPFEMVAMEKPVAEKITIQTGQGPITLRLGGTIDRMDAKDTTLRIVDYKTGGSPKTPANIEQLFTPSETRPNYIFQTFLYAAIMSRQQSLKVAPSLLYIHRAASESYSPVIEMGEPRQPKIPVNNFAFFEDEFRERLQRLLKEIFDENEPFTQTEDTKKCAYCDFKAICKR,not soluble
17,MQSLNVNGTLMTYSESGDPHAPTLFLLSGWCQDHRLFKNLAPLLARDFHVICPDWRGHDAKQTDSGDFDSQTLAQDLLAFIDAKGIRDFQMVSTSHGCWVNIDVCEQLGAARLPKTIIIDWLLQPHPGFWQQLAEGQHPTEYVAGRQSFFDEWAETTDNADVLNHLRNEMPWFHGEMWQRACREIEANYRTWGSPLDRMDSLPQKPEICHIYSQPLSQDYRQLQLEFAAGHSWFHPRHIPGRTHFPSLENPVAVAQAIREFLQA,soluble
18,MQTFVLATNSETVSQTLCSYLEGVLDLEDSVYAVNSQPGGDRTPPDAVADGKAALEVVSDRLGDQVSVETYQIIRGNSPADDIFDIAAEVDADELVIGVRKRSQTDRLIFGSVAQDIMRQSDYPMRVVPRD,not soluble
